Molecular target: ItcR itaconate-binding domain (IBD) (ItcR truncation of residues 80-292)
Test: SEC-MALS

Substance: ItcR itaconate-binding domain (IBD) (ItcR truncation of residues 80-292) (domain or fragment)
- stoichiometry N: 2

Source: publication PMC9636186 (Nature Communications, 2022)
